No end group written: not given here.
Legend:
fibronectin EDB [1] = biological target: T1, fibronectin EDB (Homo sapiens, UniProt P02751); experiment: Kd (1/s)
T1 construct: After transformation of pET28b vector carrying fibronectin ED-B into BL21 cells; His-tag (N); made in house; host or cells: E. coli BL21
From the text: (§1) Table printed on a drawing sheet, Fig. 11b
Head of the field: Kd (1/s)
(§2) The patent's description of the figure: FIG. 11a represents purification of the GST-BPB fusion protein.
(§3) FIG. 11b represents affinity of the GST-BPB to fibronectin EDB.
(§4) First copying reader's note: The name GST-BPB is printed only in Fig. 11a on this sheet, and the description gives Fig. 11b as its affinity to fibronectin EDB; the KD head says M but the cell prints nM.
(§5) Where the first naming reader finds the target: description_of_the_figure: FIG. 11b represents affinity of the GST-BPB to fibronectin EDB.

fibronectin EDB [2] = biological target: T1, fibronectin EDB; experiment: Ka (1/Ms)
From the text: as §1
Head of the field: Ka (1/Ms)
as §2, §3, §4, §5

T1 sequence (P02751 1271-1359): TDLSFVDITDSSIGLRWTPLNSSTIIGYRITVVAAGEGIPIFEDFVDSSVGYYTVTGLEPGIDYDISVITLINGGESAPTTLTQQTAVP

GST-BPB: fusion protein of glutathione S-transferase and BPB HCSSAVGSWTWENGKWTWKGIIRLEQ recognizing fibronectin EDB ({GST}-HCSSAVGSWTWENGKWTWKGIIRLEQ)
Kd (fibronectin EDB [1]): 0.00347 s⁻¹
Ka (1/Ms) (fibronectin EDB [2]): 1.22 e4 1/Ms

From US20120321697A1, “BPB-BASED CARGO DELIVERY SYSTEM” (GWANGJU INSTITUTE OF SCIENCE AND TECHNOLOGY, priority 2009, published 2012)
